{"source": "patent US20050048605A1", "about": "(Takeda / Millennium, published 2005)", "key": {"[1]": {"molecular_target": "T1, human-derived G protein-coupled receptor protein TGR23-2 (human TGR23-2) (human, UniProt Q6W5P4 1-371)", "T1 construct": "Expressed in CHO dhfr- cells (pAKKO-TGR23-2)", "T1 chain": "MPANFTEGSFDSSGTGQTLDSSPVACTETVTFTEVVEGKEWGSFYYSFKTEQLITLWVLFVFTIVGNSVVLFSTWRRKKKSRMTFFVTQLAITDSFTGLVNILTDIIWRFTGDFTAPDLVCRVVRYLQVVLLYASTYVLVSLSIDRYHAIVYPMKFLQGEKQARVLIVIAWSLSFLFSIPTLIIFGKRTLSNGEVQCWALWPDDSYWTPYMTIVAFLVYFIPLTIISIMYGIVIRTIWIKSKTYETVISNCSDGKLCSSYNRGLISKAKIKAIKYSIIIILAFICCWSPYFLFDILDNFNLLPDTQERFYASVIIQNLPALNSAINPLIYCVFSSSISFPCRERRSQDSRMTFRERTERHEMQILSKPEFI", "assay": "competition with [Nle10,125I-Tyr15] human TGR23-2 ligand (1-20); membrane fraction of TGR23-2 expressing CHO cells at 1 ug/ml; filter assay", "experimental": "Cell membrane fraction prepared from TGR23-1 expressing CHO cells and TGR23-2 expressing CHO cells was diluted to various concentration with assay buffer (20 mM Tris-HCl, 5 mM EDTA, 0.1% BSA, 0.5 mM PMSF, 1 μg/ml Pepstatin, 4 μg/ml E-64, 20 μg/ml Leupeptin, pH7.4), and 200 μl each of the diluent was dispensed into polypropilene test tube (Falcon 2053). In order to determine an amount of maximum binding, 2 μl of DMSO and 2 μl of 10 nM [Nle¹⁰, ¹²⁵I-Tyr¹⁵] human TGR23-2 ligand (1-20) were added to the membrane fraction solution. Further, in order to determine a non-specific binding, 2 μl of 1 μM [Nle¹⁰, Tyr¹⁵] human TGR23-2 ligand (1-20)/DMSO solution was added to the membrane fraction solution. The reaction was done at 25° C. for 90 minutes, and the reaction mixture was filtered by suction filtration using Whatman glassfilter (GF-F) treated with polyethyleneimine. After filtration, a radioactivity remaining on the filter was counted using γ-counter, and an amount of specific binding was estimated by subtracting an amount of non-specific binding from an amount of maximum binding. When the concentration of membrane fraction was changed, a specific binding of [Nle¹⁰, ¹²⁵I-Tyr¹⁵] human TGR23-2 ligand (1-20) was perceived depending on the concentration of membrane fraction. An inhibition of binding activity of the test specimen to TGR23-1 receptor or TGR23-2 receptor (inhibition rate (%)) was represented by a ratio of the value to the specific binding (SB), wherein the value is calculated by subtracting the radioactivity remaining on the filter (X) in the case of adding the test sample and [Nle¹⁰, ¹²⁵I-Tyr¹⁵] human TGR3-2 ligand (1-20) from the total binding (TB) ((TB−X)/SB×100 (%))."}, "[2]": {"molecular_target": "T2, rat-derived G protein-coupled receptor protein TGR23-1 (rat TGR23-1) (rat, UniProt P0C0L6 1-372)", "T2 sequence": "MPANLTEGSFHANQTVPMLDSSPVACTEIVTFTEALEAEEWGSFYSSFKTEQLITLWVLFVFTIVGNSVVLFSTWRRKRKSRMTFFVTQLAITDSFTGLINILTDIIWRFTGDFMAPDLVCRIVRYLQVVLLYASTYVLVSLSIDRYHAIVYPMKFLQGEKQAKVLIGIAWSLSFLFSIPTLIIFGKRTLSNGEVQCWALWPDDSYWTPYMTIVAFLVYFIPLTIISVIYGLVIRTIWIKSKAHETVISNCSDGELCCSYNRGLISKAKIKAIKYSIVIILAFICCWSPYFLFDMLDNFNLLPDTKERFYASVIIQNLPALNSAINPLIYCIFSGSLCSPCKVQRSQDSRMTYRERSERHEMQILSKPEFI", "assay": "cell-based or functional assay"}, "[3]": {"molecular_target": "T3, rat-derived G protein-coupled receptor protein TGR23-5 (rat TGR23-5) (rat, UniProt P0C0L6 1-372)", "T3 sequence": "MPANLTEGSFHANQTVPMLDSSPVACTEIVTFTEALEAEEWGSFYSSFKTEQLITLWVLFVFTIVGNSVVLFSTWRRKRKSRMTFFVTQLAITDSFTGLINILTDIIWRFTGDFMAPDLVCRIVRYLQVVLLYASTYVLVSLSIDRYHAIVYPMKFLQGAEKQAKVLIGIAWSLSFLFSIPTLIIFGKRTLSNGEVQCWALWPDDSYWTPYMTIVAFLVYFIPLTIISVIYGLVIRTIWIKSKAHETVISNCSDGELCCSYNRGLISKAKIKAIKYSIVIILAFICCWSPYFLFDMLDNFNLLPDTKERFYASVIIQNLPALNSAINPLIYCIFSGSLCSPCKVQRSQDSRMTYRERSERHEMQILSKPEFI", "assay": "cell-based or functional assay"}, "[4]": {"molecular_target": "T4, human-derived G protein-coupled receptor protein TGR23-1 (human TGR23-1) (human, UniProt Q6W5P4 1-371)", "T4 construct": "Expressed in CHO dhfr- cells (pAKKO-TGR23-1)", "T4 sequence": "T1 chain with I107N, R344Q", "assay": "radioligand filter binding on the membrane fraction of TGR23-1 expressing CHO cells", "source_text": "(§1) The Receptor Binding Assay Using [Nle¹⁰, ¹²⁵I-Tyr¹⁵] human TGR3-2 ligand (1-20) Using using [Nle¹⁰, ¹²⁵I-Tyr¹⁵] human TGR23-2 ligand (1-20) prepared by the method described in Example 26, and a cell membrane fraction prepared from TGR23-2 expressing CHO cells as described in Example 24 and a cell membrane fraction prepared from TGR23-1 expressing CHO cells by the similar method to that described in Example 24 using TGR23-1 expressing CHO cells instead of TGR23-2 expressing CHO cells, a receptor binding assay was carried out as follows.\n(§2) Cell membrane fraction prepared from TGR23-1 expressing CHO cells and TGR23-2 expressing CHO cells was diluted to various concentration with assay buffer (20 mM Tris-HCl, 5 mM EDTA, 0.1% BSA, 0.5 mM PMSF, 1 μg/ml Pepstatin, 4 μg/ml E-64, 20 μg/ml Leupeptin, pH7.4), and 200 μl each of the diluent was dispensed into polypropilene test tube (Falcon 2053). In order to determine an amount of maximum binding, 2 μl of DMSO and 2 μl of 10 nM [Nle¹⁰, ¹²⁵I-Tyr¹⁵] human TGR23-2 ligand (1-20) were added to the membrane fraction solution. […] After filtration, a radioactivity remaining on the filter was counted using γ-counter, and an amount of specific binding was estimated by subtracting an amount of non-specific binding from an amount of maximum binding. […]"}, "[5]": {"molecular_target": "T1, human-derived G protein-coupled …", "assay": "radioligand filter binding on the membrane fraction of TGR23-2 expressing CHO cells", "source_text": "as §1, §2"}, "[6]": {"molecular_target": "T2, rat-derived G protein-coupled receptor …", "assay": "saturation binding with Scatchard analysis on the membrane fraction of rat TGR23-1 expressing CHO cells; row head 'Binding Constant'; text gives dissociation constant 141±8.71 (pM)", "experimental": "(§3) The membrane fractions of rat TGR23-1 expressing CHO cells and rat TGR23-5 expressing CHO cells, which were prepared as described above, were suspended in binding buffer (20 mM Tris-HCl (pH7.4), 5 mM EDTA, 0.1% BSA, 0.5 mM PMSF, 0.1 μg/ml of pepstatin, 20 μg/ml of leupeptine and 4 μg/ml of E-64). The concentrtion was adjusted to 10 μg/ml. The solutiion was used as a membrane fraction solution for binding saturation. Total binding of [Nle¹⁰, ¹²⁵I-Tyr¹⁵] human TGR23-2 ligand (1-20), which was prepared by the method described in Example 26, to the membrane fractions, was obtained by the following method.\n(§4) To 200 μl of the membrane fraction solution for binding saturation, 2 μl of dimethylsulfoxide (DMSO) and 2 μl of [Nle¹⁰, ¹²⁵I-Tyr¹⁵] human TGR23-2 ligand (1-20) having various concentrations, were added, and then the mixture was incubated at 25° C. for 90 minutes. […] The radioactivity of [Nle¹⁰, ¹²⁵I-Tyr¹⁵] human TGR23-2 ligand (1-20) trapped on the glass filter was measured by counter, and the obtained value was determined as the total binding. […] A specific binding at a given concentration of [Nle¹⁰, ¹²⁵I-Tyr¹⁵] human TGR23-2 ligand (1-20) is calculated by subtracting the non-specific binding from the total binding at the same concentration. […]"}, "[7]": {"molecular_target": "T3, rat-derived G protein-coupled receptor …", "assay": "saturation binding with Scatchard analysis on the membrane fraction of rat TGR23-5 expressing CHO cells; row head 'Binding Constant'; text gives dissociation constant 125±8.36 (pM)", "experimental": "as §3, §4"}}, "note": "Where a chain is given by its changes, count along the chain named. Where no end group is shown, it is not given here. [ ]: non-standard residue; d: D form. The star is where a group is joined. Nle = CCCC[C@H](N)C(=O)O; 125I = [125I]*"}
{"binder": "SFRNGVGTGMKKTSFQRAKS (also called human TGR23 ligand (1-20))", "note": "[human TGR23-2 ligand (1-20)]", "values": [{"measurement": "IC50", "setting": "[1]", "result": 0.105, "unit": "nM"}]}
{"binder": "SFRNGVGSGVKKTSFRRA", "note": "[rat TGR23-2 ligand (1-18)]", "values": [{"measurement": "Intracellular Ca increasing activity (EC50)", "setting": "[2]", "result": 0.19, "unit": "nM"}, {"measurement": "Intracellular Ca increasing activity (EC50)", "setting": "[3]", "result": 14, "unit": "nM"}, {"measurement": "IC50", "setting": "[1]", "result": 0.0928, "unit": "nM"}]}
{"binder": "SFRNGVGTG[Nle]KKTSY(125I)QRAKS", "note": "[[Nle^10, ^125I-Tyr^15] human TGR23-2 ligand (1-20)]", "values": [{"measurement": "binding result", "setting": "[4]", "result": "binds"}, {"measurement": "binding result", "setting": "[5]", "result": "binds"}, {"measurement": "Kd", "setting": "[6]", "result": 0.141, "unit": "nM"}, {"measurement": "Kd", "setting": "[7]", "result": 0.125, "unit": "nM"}]}
{"binder": "SFRNGVGSGAKKTSFRRAKQ", "note": "[mouse TGR23-2 ligand (1-20)]", "values": [{"measurement": "IC50", "setting": "[1]", "result": 0.0245, "unit": "nM"}]}
